Where no end group is shown, it is not given here.
T1: Homer1 EVH1 domain (1-118) S97L (Mus musculus, UniProt Q9Z2Y3 1-118, S97L)
T1 sequence (looked up): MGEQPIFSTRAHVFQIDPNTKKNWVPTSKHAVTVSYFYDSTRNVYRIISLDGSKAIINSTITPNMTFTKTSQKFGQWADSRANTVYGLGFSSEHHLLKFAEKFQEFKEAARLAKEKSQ

T2: Homer1 EVH1 domain (1-118) M65I (Mus musculus, UniProt Q9Z2Y3 1-118, M65I)
T2 sequence (looked up): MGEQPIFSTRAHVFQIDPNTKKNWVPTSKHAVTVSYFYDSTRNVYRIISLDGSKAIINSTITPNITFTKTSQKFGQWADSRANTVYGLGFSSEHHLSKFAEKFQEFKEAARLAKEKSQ

T3: wild-type Homer1 EVH1 domain (1-118) (Mus musculus, UniProt Q9Z2Y3 1-118)
T3 sequence (looked up): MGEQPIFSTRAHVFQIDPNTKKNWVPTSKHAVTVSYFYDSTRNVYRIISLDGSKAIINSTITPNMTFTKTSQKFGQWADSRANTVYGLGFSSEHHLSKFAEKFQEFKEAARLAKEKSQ


Experiments:
[1] = target: T1, Homer1 EVH1 domain (1-118) S97L; assay: NMR titration
[2] = target: T2, Homer1 EVH1 domain (1-118) M65I; assay: NMR titration
[3] = target: T3, wild-type Homer1 EVH1 domain (1-118); assay: NMR titration
[4] = target: T1, Homer1 EVH1 domain (1-118) S97L; assay: BLI
[5] = target: T2, Homer1 EVH1 domain (1-118) M65I; assay: BLI
[6] = target: T3, wild-type Homer1 EVH1 domain (1-118); assay: BLI

binding result [1] | binding result [2] | binding result [3] | binding result [4] | binding result [5] | binding result [6] | Binder
binds | binds | binds | – | – | – | LVPPPEEFANG [short Shank3 peptide LVPPPEEFANG]
– | – | – | binds | binds | binds | LVPPPEEFANG (also: biotinylated, site not given here) [biotinylated Shank3 peptide ligand LVPPPEEFANG]

Source: paper doi:10.64898/2025.12.17.694870 (bioRxiv, 2025)
